Reference: PMC2855102
Each block holds one substance with its values, some of them ahead of it.

How the values were obtained:
[1] = biological target: actin (thin filament, F-actin) of mouse left ventricular myocardium (mouse (endogenous in C57/BL6 left ventricle)) (UniProt P68033)
[2] = biological target: actin (thin filament, F-actin) of mouse left ventricular myocardium (mouse (endogenous in C57/BL6 left ventricle)) (UniProt P68033); remark: listed apart in the source
[3] = biological target: actin (thin filament, F-actin) of mouse left ventricular myocardium (mouse (endogenous in C57/BL6 left ventricle)) (UniProt P68033); remark: listed apart in the source
[4] = biological target: actin (thin filament, F-actin) of mouse left ventricular myocardium (mouse (endogenous in C57/BL6 left ventricle)) (UniProt P68033); remark: listed apart in the source
[5] = biological target: actin (thin filament, F-actin) of bovine myocardium (bovine (endogenous in left ventricle and left atrium)) (UniProt Q3ZC07)
[6] = biological target: actin (thin filament, F-actin) of bovine myocardium (bovine (endogenous in left ventricle and left atrium)) (UniProt Q3ZC07); remark: listed apart in the source
[7] = biological target: actin (thin filament, F-actin) of bovine myocardium (bovine (endogenous in left ventricle and left atrium)) (UniProt Q3ZC07); remark: listed apart in the source

reduction of total passive tension during stretch of skinned MLV after thin filament (actin) extraction with gelsolin, at SL 2.25 μm [1]: 22%
reduction of titin-based passive tension of skinned MLV after thin filament (actin) extraction with gelsolin, at SL 2.25 μm (calculated from total tension with titin's fractional contribution) [2]: 44%
decrease of passive stiffness/tension during stretch of skinned MLV with both S100A1 (1 μg/μL, Sigma) and calcium (pCa 6.8), relative to pCa 9.0; stretch speeds 0.1 and 2.0 length/sec [3]: < 20%
decrease of hysteresis (area of the force-length loop of stretch-release cycles) of skinned MLV after actin extraction with gelsolin, at SL 2.25 μm [4]: 33%
Substance: titin (connectin) of mouse left ventricular myocardium, predominately the N2B isoform (natural protein)

reduction of total passive tension during stretch of skinned BLA after thin filament (actin) extraction with gelsolin, at SL 2.25 μm [5]: 10%
reduction of titin-based passive tension of skinned BLA after thin filament (actin) extraction with gelsolin, at SL 2.25 μm (calculated from total tension with titin's fractional contribution) [6]: 12%
decrease of hysteresis (area of the force-length loop of stretch-release cycles) of skinned BLA after actin extraction with gelsolin, at SL 2.25 μm [7]: 35%
Substance: titin of bovine left atrial myocardium, mainly the N2BA isoform (natural protein)

reduction of total passive tension during stretch of skinned BLV after thin filament (actin) extraction with gelsolin, at SL 2.25 μm [5]: 17%
reduction of titin-based passive tension of skinned BLV after thin filament (actin) extraction with gelsolin, at SL 2.25 μm (calculated from total tension with titin's fractional contribution) [6]: 20%
decrease of hysteresis (area of the force-length loop of stretch-release cycles) of skinned BLV after actin extraction with gelsolin, at SL 2.25 μm [7]: 52%
Substance: titin of bovine left ventricular myocardium, a mixture of the N2B and N2BA isoforms (natural protein)
